Results from patent US20150301068A1 (VIB VZW, published 2015).

Biological target: the molecule itself
Test: Western blot of HEK lysates after detergents, 95 C and beta-mercaptoethanol; homodimer band at about 50 kDa

B1: tetraspanin 6 (TSPAN6) (other)
chain: MASPSRRLQTKPVITCFKSVLLIYTFIFWITGVILLAVGIWGKVSLENYFSLLNEKATNVPFVLIATGTVIILLGTFGCFATCRASAWMLKLYAMFLTLVFLVELVAAIVGFVFRHEIKNSFKNNYEKALKQYNSTGDYRSHAVDKIQNTLHCCGVTDYRDWTDTNYYSEKGFPKSCCKLEDCTPQRDADKVNNEGCFIKVMTIIESEMGVVAGISFGVACFQLIGIFLAYCLSRAITNNQYEIV
notes: Endogenous TSPAN6 in HEK cell lysates, exosomes and human CSF, on Western blots; also called tetraspanin TM4-D; tetraspanin TM4SF
B1: binds.
